{"source": "the nanobody polyreactivity screen of Harvey et al. (2022)", "data": [{"test": "yeast display, Sf9 membrane polyspecificity reagent, FACS + sequencing; frameworks hold sequencing errors", "outline": "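A nanobody's polyreactivity label depends on the gate it was sorted from. Yeast display cells were stained with 10% biotinylated, detergent-solubilized Sf9 membrane reagent for 1 hour at 4 °C, enriched on streptavidin microbeads and sorted by FACS. The low and high (top ~1%) gates were set on anti-HA fluorescence for expression and streptavidin fluorescence for reagent binding.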", "values": [{"sequence": "QVQVVESGGGLVQAGGSLRLSCAASGFIFYVYAMGWYTQAPGKERELVAAISKRSGGTRYADSVKGRFTISRDNAKNTVYLQMNSLKPEDTAVYYCNKYGQVPGYFSLDYWGQGTQVTVSS", "polyreactivity (PSR sort gate)": "high polyreactivity"}, {"sequence": "QVQVVESGGGLVQAGGSLRLSCAASGFTFAWYTMGWYRQAPGKERELVAAISTGGNTYYADSVKGRFTISRDNAKNTVYLQMNSLKPEDTAVYYCATRPRGQTYNYWGQVTQVTVSS", "polyreactivity (PSR sort gate)": "high polyreactivity"}, {"sequence": "QVQVVESGGGLVQAGGSLRLSCAASGFTFSFYAMGWYRQAPGKERELVAAISSGGTTSYADSVKGRFTISRDYAKNTVYLQMNSLKPEDTAVYYCATDVYYYRTGAYTSTKPYDYWGQGTQVTVSS", "polyreactivity (PSR sort gate)": "low polyreactivity"}, {"sequence": "QVQVVESGGGLVQAGGSLRLSCAASGGTFGGYAMGWYRQAPGKERELVAAISSGGSTYYADSVKGRFTISRDNAKNTLYLQMNSLKPEDTAVYYCAAETVLGYWYYRKYYYWGQGTQVTVSS", "polyreactivity (PSR sort gate)": "high polyreactivity"}, {"sequence": "QVQVVESGGGLVQAGGSLRLSCAASGIIFGAYAMGWYRQAPWKEMELVAAITYSSGSTYYADSVKGRFTISRDNSKNTVYLQMNSLKPEDTAVYYCDKTNFSQSSRFNYDYWGQGTQVTVSS", "polyreactivity (PSR sort gate)": "low polyreactivity"}, {"sequence": "QVQVVESGGGLVQAGGSLRLSCAASGINFLTNAMGWYRQAPGKERELVAAISQSGGSTYYADSVKGRFTISRDHAKNTVYLQMNSLKPEDTAVYYCAAPQRYPRFYYWGQGTQVTVSS", "polyreactivity (PSR sort gate)": "high polyreactivity"}, {"sequence": "QVQVVESGGGLVQAGGSLRLSCAASGLTFIFNAMGWYRQAPGKERELVADISSGVNTNYADSVKGRFSISRDNEKNTVYLQMNSLKTEDTEVHYCADRLAQTTGYGYWGQGTQVNVSS", "polyreactivity (PSR sort gate)": "low polyreactivity"}, {"sequence": "QVQVVESGGGLVQAGGSLRLSCAASGRIFNYYAMGWYRQAPRKERELVAVISRTGVRTHYADSVKGRFTISRDNAKNTVYLQMNCLKPEDTAVYYCNADSYVFRYDYWGQGTQVTVSS", "polyreactivity (PSR sort gate)": "high polyreactivity"}, {"sequence": "QVQVVESGGGLVQAGGSLRLSCAASGRIFPLYAMGWSRQAPGTERELVAAISSGGTTYYADSVKGRFTFSRDNAKNTVYLQMNSLKPEDTAVYYCARRPAQRWGRFDYWGQGTQVTVSS", "polyreactivity (PSR sort gate)": "low polyreactivity"}, {"sequence": "QVQVVESGGGLVQAGGSLRLSCAASGRIFRANAMGGYRKAPGKERELVADISRSAGSTYYADSVKGRFTISRDNAKNTVYLQLNSLKPADTAVYYCAKRGYYSFDYWGQGTQVTVSS", "polyreactivity (PSR sort gate)": "high polyreactivity"}, {"sequence": "QVQVVESGGGLVQAGGSLRLSCAASGSIFVYYTMGWYRQAPGKERELVAAITRGGRTNFADSVKGRFTISRDNAQNSVYLLMNSLNPEDTAVYYCAKGYYWLSTYGDSRYGYWGQGTQVTVSS", "polyreactivity (PSR sort gate)": "high polyreactivity"}, {"sequence": "QVQVVESGGGLVQAGGSLRLSCAASGSIVSHYAMGWYRQAPGKERELVAGISRRGGRTYYADSVKGRFTISRDNAKNTVYLQMNSLKPEDTAVYYCAALRSSSFGYWGQGTQVTVSS", "polyreactivity (PSR sort gate)": "high polyreactivity"}, {"sequence": "QVQVVESGGGLVQAGGSLRLSCAASGSNFQRYTMGLYRQAPGKDRELVAAITGRGGSTYYADSVKGRFTISRDNAKNTVYLEMNSLKPEDTAVYYCAAGAFRRYKSDYYYWGQGTQVTVSS", "polyreactivity (PSR sort gate)": "low polyreactivity"}, {"sequence": "QVQVVESGGGLVQAGGSLRLSCAASGSTFKKYAMGWYRQAPGKERELVAAISWSGGSTYYADSVKGRFTISRDNAKNTVYLQMNSLKPEDTAVYYCAAYPYTYYLDRYEYWGQGTQVTVSS", "polyreactivity (PSR sort gate)": "high polyreactivity"}, {"sequence": "QVQVVESGGGLVQAGGSLRLSCAASGSTFQYYAMGWYRQAPGKEREFFAAITWSGGRTYYADSVKGRFTISRDNAKNTVYLQMKSLKPEDTAVYYCAADIDGVWIPYEYDYWGQGTQGTVSS", "polyreactivity (PSR sort gate)": "low polyreactivity"}, {"sequence": "QVQVVESGGGLVQAGGSLRLSCAASGSTFYINAIGWYRQAPGNERELVAAIYFRGGSTYYADSVKGRFPISRDNAKNTVYVKMNSLKPEVTAVYYCAAYYYFFRRYSWRLSCDYWGQGTQVTVSS", "polyreactivity (PSR sort gate)": "low polyreactivity"}, {"sequence": "QVQVVESGGGLVQAGGSLRLSCAPSGRIFLGNRMSWYRHAPGKERELVAAISKSGGTTYYADSVKGRFTISRDNAKNTVYLQMNSLKPEDTAVYYCAASRPRPPSSRRMDYWGQGTQVTVSS", "polyreactivity (PSR sort gate)": "high polyreactivity"}, {"sequence": "QVQVVESGGGLVQAGGSLRLTCAASGRTFYKNAMGWYRQAAGKERELFAAITTRGGTTFYADSVKGRFTISRDNAKNTDYLQLNSMIPEDTAVDYCAKDSYTRPRGYDFWGQGTHVTVSS", "polyreactivity (PSR sort gate)": "high polyreactivity"}, {"sequence": "QVQVVQSGGGLVQAGGSLRLSCAASGSTFPGNAMGWNRQAPGKERELVASIRSSAASTYYADSVKGRFTISRDNAKNTVYLHMNSLKPEETAVYYWSVRSYRRFTNLSYRYDYWGQGTQVSVSS", "polyreactivity (PSR sort gate)": "high polyreactivity"}, {"sequence": "QVRLVESGGGLFQAGGSLRISCAASGRIFNTYAMGWYRQAPGKERELVAAIRWSSGSTFYADSVKGRFTISRDYAKNTVYLQMNSLKPEDTAVYYCAADNWAVNAYYGYIYDYWGQGTQVTVSS", "polyreactivity (PSR sort gate)": "low polyreactivity"}, {"sequence": "QVRLVESGGGLVQAGGSLRLTCAASGSTFTTYALGWYRQAPGKERELVAAISSGGDTKYADSVKGRFTISRDNAKNTIYLQMNSLIPEDTAVYYCAKRRYYRYYYWGQGTQVTVSS", "polyreactivity (PSR sort gate)": "high polyreactivity"}, {"sequence": "QVTLVESGGGLVQAGGSLRLSCAASGFTFYIYAMGWYRQAPGKERELVAAISSSGTRTYYADSVKGRFTISRDHAKNTVYLQMNSLKPEDTAVYYCAAALGWYSAFGYWGQGTQVTVSS", "polyreactivity (PSR sort gate)": "high polyreactivity"}, {"sequence": "QVWLQESGGGRVQACGSLRLSCAASGTIARDIFMGWYRQAPGKEREFVATIAQGGITNYADSVKGRFTISRDNAKNTVYLQMNSVKPGDTAVYYCAARDGNCYWFYYWGQGTQVTVSS", "polyreactivity (PSR sort gate)": "high polyreactivity"}, {"sequence": "QVWLQESRGGLVQASGSLRLSCAASGTISRDIFMGWYRQAPGKEREFVATIAQGGITNYADSVKGRFTISRDNAKNTVYLLMISVKPGDTEVYYCAARDGNCYWFYYWGQGTQVTVSS", "polyreactivity (PSR sort gate)": "high polyreactivity"}, {"sequence": "QYQLEDSGGGVVQAGCSLRLSCAASGRTFAYYAMGWYRQAPGKERELVAAISSSGGRTYYADSVKGRFTISRDNAKKTVYLQMNSLIPEDTAVYYCAATSTSGVLYDYWGQGTQVTVSS", "polyreactivity (PSR sort gate)": "high polyreactivity"}, {"sequence": "QYQLVESGGGLVQAGGSLRLSCAASGRTFYYNAMGWYRQAPGKETELVASITITDSTNYSDSVKGRFTISRDNANNTVYLQMNSLKPEDTAVYYCAKRGLGTSFYLSDYWGQGTQVTVSS", "polyreactivity (PSR sort gate)": "low polyreactivity"}, {"sequence": "RDQHVESGGGLVQAGGSLRLSCAASGRTFVPYAMGWYRQAPGKERELVAAISSGGDTNYADSVKGRFTISRDNAKNTVYLQMNSLKPEDTAVYYFAKDLTQIYYGDDYWGQGTQVTVSS", "polyreactivity (PSR sort gate)": "low polyreactivity"}, {"sequence": "RVQLQESGGGLVQAGGSLRLICAASGTNFIRGDMGWYRQAPGKEREFVATIDNGSNTYYADSEKGRFTISRDNAKNAVYLQMNCLKPGDTAVYYCVVDYQLSGRLRYWGQGTQVTLSS", "polyreactivity (PSR sort gate)": "low polyreactivity"}, {"sequence": "RVQLQESGGGLVQEGGSLRLSCAPSSTISRDFYMGWYRQAPGKELEFVASITYGASTNYADSVKGRVTISRDNANNTVYLQMNSLKPEDTAVYYSNAKQQPYGGTDSDYWGQGTQVSVSS", "polyreactivity (PSR sort gate)": "low polyreactivity"}, {"sequence": "RVQLVESGGGLVQAGGSLRFSCAASGRIFPNNAMGWSSQAPGKARELVAAISRTGGSTYYADSVKGRFTISRDNAKNTVYLQMNSLKPEDTAVYYCAASHARWSPYYSRYYYWGQGTQVTGSS", "polyreactivity (PSR sort gate)": "high polyreactivity"}, {"sequence": "RVQLVESGGGLVQAGGSLRLSCAASGRIFAQYPMGWYRKAPRKERELLAAITTTGRTYYADSVKGRFTISRDNAKNTVYLQMNSLKPEDTAVSYCAVGYHAPNVSTSDPRYDYWGQGTQVTVSS", "polyreactivity (PSR sort gate)": "low polyreactivity"}]}]}
